According to publication PMC10398351 (2023):

Legend:
Assay in all cases: SPR
MUC1 TRD-Tn (3) = MUC1 TRD-Tn (3) (UniProt P15941, Tn antigen (GalNAcα) on the Thr of the Asp-Thr-Arg-Pro moiety)
MUC1-ST (4) = MUC1-ST (4) (UniProt P15941, ST antigen (Neu5Acα2,3Galβ1,3GalNAcα) on the Thr of the Asp-Thr-Arg-Pro moiety)
[1] = target: non-glycosylated MUC1 TRD (2) (UniProt P15941)
Chain of non-glycosylated MUC1 TRD (2) (P15941 whole entry, looked up): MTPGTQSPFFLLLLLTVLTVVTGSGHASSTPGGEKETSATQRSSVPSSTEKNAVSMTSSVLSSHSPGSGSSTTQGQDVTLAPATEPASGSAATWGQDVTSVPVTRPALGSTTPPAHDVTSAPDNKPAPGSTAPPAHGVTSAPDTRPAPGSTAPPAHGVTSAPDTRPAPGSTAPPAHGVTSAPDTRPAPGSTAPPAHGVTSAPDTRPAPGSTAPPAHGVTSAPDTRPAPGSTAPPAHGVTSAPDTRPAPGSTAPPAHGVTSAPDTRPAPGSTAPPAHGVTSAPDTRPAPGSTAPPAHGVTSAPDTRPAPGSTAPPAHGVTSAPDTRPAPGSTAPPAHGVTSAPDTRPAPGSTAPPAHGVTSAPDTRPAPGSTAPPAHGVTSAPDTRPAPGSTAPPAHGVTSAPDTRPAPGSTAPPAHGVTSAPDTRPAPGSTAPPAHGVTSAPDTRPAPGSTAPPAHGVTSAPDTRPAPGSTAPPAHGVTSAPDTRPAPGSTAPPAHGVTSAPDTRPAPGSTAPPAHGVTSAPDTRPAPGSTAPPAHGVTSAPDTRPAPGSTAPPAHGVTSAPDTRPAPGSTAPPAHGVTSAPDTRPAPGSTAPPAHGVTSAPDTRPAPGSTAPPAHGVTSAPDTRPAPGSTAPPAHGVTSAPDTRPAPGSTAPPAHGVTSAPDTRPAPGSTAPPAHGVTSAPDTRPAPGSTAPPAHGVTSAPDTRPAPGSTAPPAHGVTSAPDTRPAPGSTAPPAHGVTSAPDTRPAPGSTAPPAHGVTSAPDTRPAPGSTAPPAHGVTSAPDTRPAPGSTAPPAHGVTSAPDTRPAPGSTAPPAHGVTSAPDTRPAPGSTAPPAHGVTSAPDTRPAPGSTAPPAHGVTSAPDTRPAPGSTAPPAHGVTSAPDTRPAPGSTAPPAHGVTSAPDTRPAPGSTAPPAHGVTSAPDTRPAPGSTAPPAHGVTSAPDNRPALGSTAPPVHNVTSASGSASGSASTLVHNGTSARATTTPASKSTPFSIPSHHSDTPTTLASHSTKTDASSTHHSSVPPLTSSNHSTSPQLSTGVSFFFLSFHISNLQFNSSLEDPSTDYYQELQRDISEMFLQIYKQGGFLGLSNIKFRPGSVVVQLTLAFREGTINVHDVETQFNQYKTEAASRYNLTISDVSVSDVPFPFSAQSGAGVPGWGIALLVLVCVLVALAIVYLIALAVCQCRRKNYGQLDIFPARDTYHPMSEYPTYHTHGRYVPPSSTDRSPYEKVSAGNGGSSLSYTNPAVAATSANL

Chain of MUC1-ST (4) (P15941 whole entry, looked up): as above
Chain of MUC1 TRD-Tn (3) (P15941 whole entry, looked up): as above

koff (MUC1 TRD-Tn (3)): 0.00144 s⁻¹ | koff (MUC1-ST (4)): 0.000456 s⁻¹ | Kd [1]: 10.8 µM | koff [1]: 0.00225 s⁻¹
B1: SN-131 Fab (Fab, V domains shown)
VH: QVQLQQSGAELARPGASVKLSCKASGYTFTNYGLSWVKQRTGQGLEWIGENHPGSGIIYHNEKFRGKATLTADKSSSTAYVQLSSLTSEDSAVYFCARSSGTRGFAYWGQGTLVTVSA
VL: DVLMTQTPLSLPVSLGDQASISCRSSQSIVHSNGNTYLEWYLQKPGQSPKLLIYKVSNRFSGVPDRFSGSGSGTDFTLKISRVEAEDLGVYYCFQGSHGPWTFGGGTKLEIK
